This passage reports IC50, inhibition of the IL2 (12.5 ng/mL)-driven luciferase signal (RLUs) in βγ-receptor reporter cells and IC50, inhibition of the IL15 (6 ng/mL)-driven luciferase signal (RLUs) in βγ-receptor reporter cells results from patent publication US20250257143A1.

This test addresses beta gamma receptor (CD122/CD132) for IL2 and IL15 on a reporter cell line (UniProt P14784).

Chain of beta gamma receptor (CD122/CD132) for IL2 and IL15 on a reporter cell line (P14784 27-551 limits assumed, chain 1 of 2): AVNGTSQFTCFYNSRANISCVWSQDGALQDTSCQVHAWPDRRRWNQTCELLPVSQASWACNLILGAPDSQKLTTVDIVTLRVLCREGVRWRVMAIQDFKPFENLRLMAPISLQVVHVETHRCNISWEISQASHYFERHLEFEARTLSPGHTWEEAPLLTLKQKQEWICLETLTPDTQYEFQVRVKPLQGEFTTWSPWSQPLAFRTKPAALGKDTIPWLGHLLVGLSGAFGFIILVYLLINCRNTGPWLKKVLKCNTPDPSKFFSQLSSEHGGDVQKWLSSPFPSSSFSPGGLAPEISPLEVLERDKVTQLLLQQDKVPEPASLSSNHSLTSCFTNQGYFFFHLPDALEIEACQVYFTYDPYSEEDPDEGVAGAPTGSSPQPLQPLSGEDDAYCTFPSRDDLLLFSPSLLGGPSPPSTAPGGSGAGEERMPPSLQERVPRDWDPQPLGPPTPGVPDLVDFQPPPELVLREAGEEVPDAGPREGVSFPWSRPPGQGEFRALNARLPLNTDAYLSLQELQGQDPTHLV
Chain of beta gamma receptor (CD122/CD132) for IL2 and IL15 on a reporter cell line (P31785 23-369 limits assumed, chain 2 of 2, further chain): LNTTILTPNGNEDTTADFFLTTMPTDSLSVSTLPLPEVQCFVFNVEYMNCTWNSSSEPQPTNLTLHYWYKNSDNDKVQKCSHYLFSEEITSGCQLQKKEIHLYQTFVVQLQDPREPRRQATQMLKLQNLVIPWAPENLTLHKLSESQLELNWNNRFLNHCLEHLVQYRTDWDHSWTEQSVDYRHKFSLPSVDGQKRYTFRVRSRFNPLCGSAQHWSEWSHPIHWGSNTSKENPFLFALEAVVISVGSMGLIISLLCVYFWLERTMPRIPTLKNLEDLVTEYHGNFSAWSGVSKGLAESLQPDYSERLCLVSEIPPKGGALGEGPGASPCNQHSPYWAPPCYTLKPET

For “anti-human CD122 antibody Clone TU27 (BioLegend, Catalog #339015)”, the IC50, inhibition of the IL2 (12.5 ng/mL)-driven luciferase signal (RLUs) in βγ-receptor reporter cells came to 0.0757 µg/mL and the IC50, inhibition of the IL15 (6 ng/mL)-driven luciferase signal (RLUs) in βγ-receptor reporter cells amounted to 0.6 µg/mL.
